Results from patent publication US11844843.

Target: recombinant human TfR1 (transferrin receptor protein 1) (human) (UniProt P02786)
Assay: Carterra LSA SPR, 25 C; IgG captured, hTfR1 as analyte; 1:1 fit

Sequence of recombinant human TfR1 (transferrin receptor protein 1) (human) (P02786 89-760 limits assumed): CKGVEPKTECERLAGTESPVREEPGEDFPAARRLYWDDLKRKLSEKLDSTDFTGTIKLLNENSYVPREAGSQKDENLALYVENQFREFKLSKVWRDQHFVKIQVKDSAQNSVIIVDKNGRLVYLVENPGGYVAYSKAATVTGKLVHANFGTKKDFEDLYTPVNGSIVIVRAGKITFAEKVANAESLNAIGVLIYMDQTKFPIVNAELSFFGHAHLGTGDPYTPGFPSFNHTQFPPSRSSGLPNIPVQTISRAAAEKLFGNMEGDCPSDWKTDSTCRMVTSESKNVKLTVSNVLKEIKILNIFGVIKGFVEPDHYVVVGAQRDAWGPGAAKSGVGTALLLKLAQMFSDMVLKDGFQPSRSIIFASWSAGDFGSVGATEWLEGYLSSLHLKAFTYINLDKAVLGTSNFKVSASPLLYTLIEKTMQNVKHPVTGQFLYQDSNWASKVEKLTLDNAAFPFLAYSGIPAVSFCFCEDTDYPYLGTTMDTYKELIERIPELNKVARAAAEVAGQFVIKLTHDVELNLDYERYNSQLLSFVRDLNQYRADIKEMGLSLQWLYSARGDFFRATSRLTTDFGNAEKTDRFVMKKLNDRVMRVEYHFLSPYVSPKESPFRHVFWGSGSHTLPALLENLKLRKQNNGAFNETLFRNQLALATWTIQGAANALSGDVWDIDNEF

Kd: 0.536 nM | kon: 774000 M⁻¹ s⁻¹
Substance: OKT9 mIgG (control anti-TfR1 antibody)
